In experiment [1] the target is T1, SARS-CoV-2 main protease (M^pro), wild type (SARS-CoV-2, UniProt P0DTD1). Put plainly: cell-based or functional assay.
Experiment [2] deals with T1, SARS-CoV-2 main protease (M^pro), wild …. Put plainly: […].

Experimental findings from paper doi:10.1101/2021.08.23.457419 (bioRxiv, 2021) are described below.

Where no end group is shown, it is not given here.

In the case of YLQYAVLRHKRREC (also: cyclic, mode of cyclization not given here) [cyclic peptide 1], in experiment [1], the “IC50, inhibition of M^pro proteolytic activity (FRET substrate cleavage)” value is 70 nM. The affinity in experiment [2], expressed as Ki, was 14 nM.
